Where “and” joins values, the source holds several entries; their conditions need not be identical. Identical values can stand only once. Like-named read-outs stand apart in the source and are kept apart here.
Tests used:
[1] = target: VPE2LS2…2…2; test: peptide-array ELISA [Con't]
[2] = target: LSCGSR2…2T; test: peptide-array ELISA [Con't]
[3] = target: VV2…; test: peptide-array ELISA [Con't]
[4] = target: CAPEPGST2…2…; test: peptide-array ELISA [Con't]
[5] = target: CDQVETQA2…2…; test: peptide-array ELISA [Con't]
[6] = target: CG2RL2APLRK2RPGFCQA2TREQNRI2T2RPC; test: peptide-array ELISA [Con't]
[7] = target: REQNRI2…2R; test: peptide-array ELISA [Con't]
[8] = target: CAPLRK2…2TREQNRI2T2RPC; test: peptide-array ELISA [Con't]
[9] = target: LS2…2…; test: peptide-array ELISA [Con't]
[10] = target: SDVV2…; test: peptide-array ELISA [Con't]
[11] = target: …2GGSGGQA2TREQNRIC; test: peptide-array ELISA [Con't]
[12] = target: ETSDVV2…; test: peptide-array ELISA [Con't]
[13] = target: TREQNRI2…2R; test: peptide-array ELISA [Con't]
[14] = target: …2TREQNRIC; test: peptide-array ELISA [Con't]
[15] = target: …2TSCAPLRK2…; test: peptide-array ELISA [Con't]
[16] = target: CAPEPGST2…2TSTSPTRC; test: peptide-array ELISA [Con't]
[17] = target: CLSKQEG2RL2…2RLC; test: peptide-array ELISA [Con't]
[18] = target: WNWVPE2…; test: peptide-array ELISA [Con't]
[19] = target: SKQEGCRL2APGGSGGL2…; test: peptide-array ELISA [Con't]
[20] = target: …2…; test: peptide-array ELISA [Con't]
[21] = target: …2SK2SPGQH; test: peptide-array ELISA [Con't]
[22] = target: S2…2RPG; test: peptide-array ELISA
[23] = target: …2RP; test: peptide-array ELISA
[24] = target: 2…2RP; test: peptide-array ELISA
[25] = target: S2…2RP; test: peptide-array ELISA
[26] = target: WNWVPE2…2; test: peptide-array ELISA
[27] = target: LS2…2RP; test: peptide-array ELISA
[28] = target: 2…2RPG; test: peptide-array ELISA
[29] = target: QEGCRL2…; test: peptide-array ELISA
[30] = target: VPE2LS2…2TREQNRIC; test: peptide-array ELISA
[31] = target: VPE2LS2…2RP; test: peptide-array ELISA
[32] = target: PE2LS2…2RP; test: peptide-array ELISA
[33] = target: LWNWVPE2…2; test: peptide-array ELISA
[34] = target: VPE2LSCGSR2…2; test: peptide-array ELISA
[35] = target: LWNWVPE2…2T; test: peptide-array ELISA
[36] = target: CEQNRI2T2RPGWY2…2TSTSPTRC; test: peptide-array ELISA
[37] = target: 2LS2…2RPGW; test: peptide-array ELISA
[38] = target: LWNWVPE2…; test: peptide-array ELISA
[39] = target: E2LS2…2RP; test: peptide-array ELISA
[40] = target: LS2…2RPG; test: peptide-array ELISA
[41] = target: …2…2RP; test: peptide-array ELISA
[42] = target: WY2…; test: peptide-array ELISA [Con't]
[43] = target: EGCRL2…; test: peptide-array ELISA [Con't]
[44] = target: WVPE2…2T2; test: peptide-array ELISA [Con't]
[45] = target: PE2LS2…2RPGW; test: peptide-array ELISA [Con't]
[46] = target: VPE2LSCGSR2…2T; test: peptide-array ELISA [Con't]
[47] = target: WVPE2…2; test: peptide-array ELISA [Con't]
[48] = target: 2LS2…2TREQNRIC; test: peptide-array ELISA [Con't]
[49] = target: WNWVPE2…2T; test: peptide-array ELISA [Con't]
[50] = target: NWVPE2…2T; test: peptide-array ELISA [Con't]
[51] = target: NRI2…2RL; test: peptide-array ELISA [Con't]
[52] = target: LS2…2RPGW; test: peptide-array ELISA [Con't]
[53] = target: …2RPGW; test: peptide-array ELISA [Con't]
[54] = target: …2…; test: peptide-array ELISA [Con't]; remark: listed apart in the source
[55] = target: 2…2…; test: peptide-array ELISA [Con't]
[56] = target: CQI2…2…; test: peptide-array ELISA [Con't]
[57] = target: WY2…2…; test: peptide-array ELISA [Con't]

Chain of WY2… (peptide, as listed by the source): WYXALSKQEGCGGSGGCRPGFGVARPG
Chain of …2RPGW (peptide, as listed by the source): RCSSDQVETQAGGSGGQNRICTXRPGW
Chain of QEGCRL2… (peptide, as listed by the source): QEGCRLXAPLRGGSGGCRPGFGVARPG
Chain of LWNWVPE2… (peptide, as listed by the source): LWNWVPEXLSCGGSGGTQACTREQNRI
Chain of WNWVPE2… (peptide, as listed by the source): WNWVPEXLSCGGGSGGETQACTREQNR
Chain of EGCRL2… (peptide, as listed by the source): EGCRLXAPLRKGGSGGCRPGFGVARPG

In the case of agonistic TNFR2 antibody MR2-1, the Raw luminescence data [1] is reported as 206, the Raw luminescence data [2] is reported as 194 and the Raw luminescence data [3] is reported as 209. It also gave a Raw luminescence data [4] of 196, a Raw luminescence data [5] of 201 and a Raw luminescence data [6] of 215. The Raw luminescence data [7] was 210, the Raw luminescence data [8] was 220 and the Raw luminescence data [9] was 198. The Raw luminescence data [10] was 203 and 196, the Raw luminescence data [11] was 206 and the Raw luminescence data [12] was 197. For the same substance, the Raw luminescence data [13] was 205, the Raw luminescence data [14] was 207 and 192 and the Raw luminescence data [15] was 197. It also gave a Raw luminescence data [16] of 213, a Raw luminescence data [17] of 198 and a Raw luminescence data [18] of 220. For the same substance, the Raw luminescence data [19] was 224, the Raw luminescence data [20] was 192 and the Raw luminescence data [21] was 194. For the same substance, the Raw luminescence data [22] was 385, the Raw luminescence data [23] was 435 and 433 and the Raw luminescence data [24] was 510. The Raw luminescence data [25] was 392, the Raw luminescence data [26] was 403 and the Raw luminescence data [27] was 584. It also gave a Raw luminescence data [28] of 389, a Raw luminescence data [29] of 428 and a Raw luminescence data [30] of 399. It also gave a Raw luminescence data [31] of 410, a Raw luminescence data [32] of 483 and a Raw luminescence data [33] of 525. For the same substance, the Raw luminescence data [34] was 365, the Raw luminescence data [35] was 467 and the Raw luminescence data [36] was 413. For the same substance, the Raw luminescence data [37] was 366, the Raw luminescence data [38] was 400 and the Raw luminescence data [39] was 418. The Raw luminescence data [40] was 433, the Raw luminescence data [41] was 459 and the Raw luminescence data [42] was 344. The Raw luminescence data [43] was 359, the Raw luminescence data [44] was 287 and the Raw luminescence data [45] was 305. It also gave a Raw luminescence data [46] of 292, a Raw luminescence data [47] of 317 and a Raw luminescence data [48] of 288. It also gave a Raw luminescence data [49] of 323, a Raw luminescence data [50] of 283 and a Raw luminescence data [51] of 296. The Raw luminescence data [52] was 299, the Raw luminescence data [53] was 308 and the Raw luminescence data [54] was 342 and 337. For the same substance, the Raw luminescence data [55] was 299, the Raw luminescence data [56] was 286 and the Raw luminescence data [57] was 287.
